Numbering of substitutions follows the chain as printed.
How the values were obtained:
N332-GT2 NP (ferritin) = N332-GT2 NP (ferritin) (HIV-1 BG505 Env fused to Helicobacter …); assay: SPR; NP captured as ligand with PGT128 IgG, Fab flowed as analyte
[1] = target: BG505 MD39 N332-GT2 trimer (HIV-1 BG505); assay: SPR, Fab and N332-GT2 trimer
[2] = target: BG505 MD39 N332-GT2 trimer (HIV-1 BG505); assay: SPR
[3] = target: BG505 MD39 N332-GT2 trimer (HIV-1 BG505); assay: SPR; reference 11mutB trimer
gp120-17mutE K137/P325 = assay: SPR
[4] = target: gp120-17mutE K137/R139/M141/P325; assay: SPR
gp120-17mutE K137/H325 = assay: SPR
[5] = target: gp120-17mutE K137/M141/P325; assay: SPR
gp120-17mutE = assay: SPR
[6] = target: BG505 MD39 N332-GT2 trimer (HIV-1 BG505); assay: SPR; KD scatter plot
BG505 MD39 trimer [7] = target: BG505 MD39 trimer (HIV-1 BG505); assay: ELISA on BG505-MD39, mAb titrated from about 0.001 to 50 µg/mL
BG505 MD39 trimer [8] = target: BG505 MD39 trimer (HIV-1 BG505); assay: ELISA on BG505-MD39, BG18 as mAb titrated from about 0.001 to 50 µg/mL

B1: BG18 iGL0 Fab (Fab, V domains shown)
VH: QVQLQESGPGLVKPSGTLSLTCAVSGGSISSSNWWSWVRQPPGKGLEWIGEIYHSGSTNYNPSLKSRVTISVDKSKNQFSLKLSSVTAADTAVYYCARNAITIFGVVIIGEYYYYGMDVWGQGTTVTVSS
VL: not shown
- Kd (N332-GT2 NP (ferritin)): 3 nM
- Kd [1]: 4 nM

B2: BG18 iGL1 with alternate germline VL gene VL3-1 (antibody, V domains shown)
VH: B1 VH with I109L
VL: not shown
- binding result [2]: binds

B3: BG18 iGL1 with alternate germline VL gene VL2-8 (antibody, V domains shown)
VH: B1 VH with I109L
VL: QSALTQPPSASGSPGQSVTISCTGTSSDVGGYNYVSWYQQHPGKAPKLMIYEVSKRPSGVPDRFSGSKSGNTASLTVSGLQAEDEADYYCSSYAGSNNFWVFGGGTKLTVL
- binding result [2]: binds

B4: BG18 iGL1 (antibody, V domains shown)
VH: B1 VH with I109L
VL: not shown
- fold improvement over 11mutB [3]: ~130000 fold
- Kd [2]: 0.213 nM
- Kd (gp120-17mutE K137/P325): 11 nM
- Kd [4]: 0.5 nM
- Kd (gp120-17mutE K137/H325): 5.9 nM
- Kd [5]: 2.5 nM
- Kd (gp120-17mutE): ~14000 nM

B5: BG18 iGL1 with alternate germline VL gene VL3-19 (antibody, V domains shown)
VH: B1 VH with I109L
VL: SSELTQDPAVSVALGQTVRITCQGDSLRSYYASWYQQKPGQAPVLVIYGKNNRPSGIPDRFSGSSSGNTASLTITGAQAEDEADYYCNSRDSSGNHWVFGGGTKLTVL
- binding result [2]: binds

B6: pre14 (antibody, V domains shown)
VH: B1 VH with N99G, A100R, I108T, I109L, G110R, E111G
VL: not shown
notes: also called NGS pre14; NGS Pre14
- Kd (N332-GT2 NP (ferritin)): 94 nM
- Kd [1]: 136 nM

B7: pre4 (antibody, V domains shown)
VH: B1 VH with N99E, A100R, I101D, I108S, I109L, G110R, E111V
VL: not shown
- binding result [6]: no binding (tested: 100 µM)

B8: BG18 iGL1 with alternate germline VL gene VL3-10 (antibody, V domains shown)
VH: B1 VH with I109L
VL: SYELTQPPSVSVSPGQTARITCSGDALPKKYAYWYQQKSGQAPVLVIYKDSKRPSGIPERFSGSSSGTMATLTISGAQVEDEDDYYCYSADYSGNHWVFGGGTKLTVL
- binding result [2]: binds

B9: pre13 (antibody, V domains shown)
VH: B1 VH with R98K, N99A, A100L, I101N, I108T, I109L, G110T, E111Q
VL: not shown
- binding result [6]: no binding (tested: 100 µM)

B10: pre15 (antibody, V domains shown)
VH: B1 VH with N99D, A100I, I101H, T102N, I103S, I108S, I109L, G110D, E111Q, Y112N
VL: not shown
- binding result [6]: no binding (tested: 100 µM)

B11: BG18.6H BG18.11L (antibody, V domains shown)
VH: QVQLQESGPGLVKPSGTLSLTCAVSGDSRPSDHSWSWVRQPPGKGLEWIGEIYYSGSTNYNPSLKSRVTISVDKSKNQFSLKLSSVTAADTAVYYCARNAIRIYGVVALGEWFHYGMDVWGQGTTVTVSS
VL: SYELTQPPSVSVSPGQTARITCSGDALPSRYAYWYQQKPGQAPVLVISRDSQRSSGISGRFSGSWSGTTVTLTISGVQAEDEADYYCQSSDSSDTYKVFGGGTKLTVL
notes: also called less mutated variant of BG18
- EC50 (read off the curve) (BG505 MD39 trimer [7]): ~0.05 µg/mL

B12: BG18 Fab (Fab, V domains shown)
VH: QVQLRESGPGLVKPSETLSLSCTVSNDSRPSDHSWTWVRQSPGKALEWIGDIHYNGATTYNPSLRSRVRIELDQSIPRFSLKMTSMTAADTGMYYCARNAIRIYGVVALGEWFHYGMDVWGQGTAVTVSS
VL: SSELTQPPSVSVSPGQTARITCSGAPLTSRFTYWYRQKPGQAPVLIISRSSQRSSGWSGRFSASWSGTTVTLTIRGVQADDEADYYCQSSDTSDSYKMFGGGTKLTVL
notes: also called mature BG18; 354BG18
- EC50 (read off the curve) (BG505 MD39 trimer [8]): ~0.02 µg/mL
